{"source": "paper doi:10.1101/2022.04.12.488087", "about": "(bioRxiv, 2022)", "target": "SARS-CoV-1 wild type RBD (SARS-CoV-1 (P59594 / NP_828851.1, …))", "experiment": "crystal structure", "data": [{"binder": "nanobody Nb70 (VHH with 6xHis tag, for crystal structural analysis) (VHH) VHH: QVQLVESGGGLVQAGGSLRLSCVASGRTFSRYAMGWFRQAPGKEREFVAVIEWDGGTSYYVDSVKGRFTISRDNAKNTVYLQMNSLKPEDTAVYYCAAGGNQYYSATYSIWNEYDFWGQGTQVTVSS", "values": [{"measurement": "binding result", "value": "binds"}]}]}
